Consider 1 protein from paper PMC11094075, “Ago2/CAV1 interaction potentiates metastasis via controlling Ago2 localization and miRNA action” (EMBO Reports, 2024).

The data set concerns the target T1, HA-tagged wild-type Ago2 (HA-Ago2Wt), in Ago2-knockout A549 and HCC1806 cells (human, UniProt Q9UKV8 1-859).
T1 construct: Argonaute-2 (Ago2), human; source: lentiviral (pLV-EF1a-HA-Ago2-Blast), Ago2-knockout A549 and HCC1806 cells, in lysate; not shown: HA, N-terminal, kept
The experiment in a line: co-IP; Ago2-knockout A549 and HCC1806 cells expressing HA-Ago2Wt, HA-Ago2K212A or HA-Ago2K212R; IP with anti-HA, blot for endogenous CAV1; ratio pCAV1/pHA; vehicle or TM (10 µM). The note with it: partners not purified.

T1 sequence (Q9UKV8 whole entry): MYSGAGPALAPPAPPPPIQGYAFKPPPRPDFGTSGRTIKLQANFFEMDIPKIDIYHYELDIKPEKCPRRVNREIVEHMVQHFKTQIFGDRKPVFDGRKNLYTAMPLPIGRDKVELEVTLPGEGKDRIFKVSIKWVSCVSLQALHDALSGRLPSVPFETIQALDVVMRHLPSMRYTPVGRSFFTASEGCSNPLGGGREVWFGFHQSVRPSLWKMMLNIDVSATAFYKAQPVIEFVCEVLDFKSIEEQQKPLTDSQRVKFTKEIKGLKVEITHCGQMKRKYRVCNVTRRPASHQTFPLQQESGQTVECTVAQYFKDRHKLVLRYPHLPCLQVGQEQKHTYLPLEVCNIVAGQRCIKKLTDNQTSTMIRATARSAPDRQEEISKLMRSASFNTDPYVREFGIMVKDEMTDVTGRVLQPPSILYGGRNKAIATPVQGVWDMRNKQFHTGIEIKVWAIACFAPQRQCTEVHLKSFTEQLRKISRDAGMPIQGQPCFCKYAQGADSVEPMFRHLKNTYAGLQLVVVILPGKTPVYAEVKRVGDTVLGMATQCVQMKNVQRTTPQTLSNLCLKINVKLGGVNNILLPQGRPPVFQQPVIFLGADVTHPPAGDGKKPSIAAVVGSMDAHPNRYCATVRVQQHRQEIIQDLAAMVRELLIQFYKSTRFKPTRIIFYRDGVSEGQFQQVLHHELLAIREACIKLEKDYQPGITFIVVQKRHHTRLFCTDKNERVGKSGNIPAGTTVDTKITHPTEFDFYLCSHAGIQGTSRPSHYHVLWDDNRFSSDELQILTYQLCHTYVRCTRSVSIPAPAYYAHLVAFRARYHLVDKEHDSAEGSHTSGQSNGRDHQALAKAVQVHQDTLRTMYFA

B1: Caveolin-1 (CAV1), endogenous (natural protein, UniProt Q03135 1-178, looked up)
chain: MSGGKYVDSEGHLYTVPIREQGNIYKPNNKAMADELSEKQVYDAHTKEIDLVNRDPKHLNDDVVKIDFEDVIAEPEGTHSFDGIWKASFTTFTVTKYWFYRLLSALFGIPMALIWGIYFAILSFLHIWAVVPCIKSFLIEIQCISRVYSIYVHTVCDPLFEAVGKIFSNVRINLQKEI
notes: Caveolin-1 (CAV1), human; source: endogenous
Take B1: the “percent of pCAV1/pHA left in cells treated with TM (10 µM) against vehicle” value was approximately 49%.
